According to patent US7611711B2, “VEGFR-3 inhibitor materials and methods” (Vegenics Limited, priority 2001, dated 2009):
Ends that are not written are not given here. GST = glutathione-S-transferase

Biological target: T1, VEGFR-3/EpoR chimera expressed on BaF3 cells (UniProt P14753+P35916)
T1 construct: expressed in transfected cells; host or cells: BaF3 (IL-3 dependent murine pro-B cells)
T1 sequence (P35916+P14753 with tags, fused parts or gaps): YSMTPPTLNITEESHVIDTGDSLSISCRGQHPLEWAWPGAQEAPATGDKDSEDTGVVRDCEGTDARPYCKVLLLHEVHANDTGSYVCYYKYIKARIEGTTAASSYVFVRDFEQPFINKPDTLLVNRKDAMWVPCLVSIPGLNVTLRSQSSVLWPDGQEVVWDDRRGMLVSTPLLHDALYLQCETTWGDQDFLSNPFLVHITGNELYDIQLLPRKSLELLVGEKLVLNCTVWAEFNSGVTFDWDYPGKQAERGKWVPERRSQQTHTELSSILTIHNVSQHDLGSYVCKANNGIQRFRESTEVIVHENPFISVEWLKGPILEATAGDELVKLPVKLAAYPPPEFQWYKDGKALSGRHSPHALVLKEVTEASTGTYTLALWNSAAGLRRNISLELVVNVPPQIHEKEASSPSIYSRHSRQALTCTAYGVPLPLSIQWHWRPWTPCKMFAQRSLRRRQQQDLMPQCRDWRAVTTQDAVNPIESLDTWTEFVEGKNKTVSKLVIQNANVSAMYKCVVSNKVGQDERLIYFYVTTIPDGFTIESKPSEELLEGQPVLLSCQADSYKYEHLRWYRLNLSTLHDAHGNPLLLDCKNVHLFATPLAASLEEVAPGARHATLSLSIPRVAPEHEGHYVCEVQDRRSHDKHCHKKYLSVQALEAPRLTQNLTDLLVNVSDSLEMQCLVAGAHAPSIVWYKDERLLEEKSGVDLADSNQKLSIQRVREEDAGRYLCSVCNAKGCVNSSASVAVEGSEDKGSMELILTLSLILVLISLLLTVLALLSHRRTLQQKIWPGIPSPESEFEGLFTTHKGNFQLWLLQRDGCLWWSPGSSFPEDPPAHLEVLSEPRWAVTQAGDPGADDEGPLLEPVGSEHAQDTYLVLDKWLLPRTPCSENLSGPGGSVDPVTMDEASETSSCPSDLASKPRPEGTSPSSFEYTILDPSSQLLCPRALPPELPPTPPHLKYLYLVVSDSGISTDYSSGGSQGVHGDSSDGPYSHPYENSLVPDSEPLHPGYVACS
Assay: Bioassay for VEGFR-3 stimulation: viability (MTT) of BaF3 cells expressing a VEGFR-3/EpoR chimera, supplied with VEGF-C
Format: cell-based
Description: For the viability assay, the IL-3 dependent BaF3 cells expressing a VEGFR-3/EpoR chimera (Aschen et al, Eur J Biochem. 267(9):2505-15, 2000) were seeded in 96 well microtiter plates at 15000 cells/well in triplicates in the absence of IL-3 but supplied with the lOOng/ml VEGF-C and a range of concentrations of the selected peptides fused with GST. Cells were cultured for 48 h, during which time the cells incubated in cell culture medium alone had died. The viability of the cells was determined by the MTT reagent, which was added at a concentration of 0.5 mg/ml. After 2 h an equal volume of cell lysis solution was added (10%SDS/10 mM HCl) and allowed to incubate overnight at 37° C. The absorbance was measured at 540 nm.
The effects of the peptides fused to GST on the growth of BaF3-R3/EpoR were assessed using the MTT assay as described above and are depicted in FIG. 1. In this experiment, GST- CGYWLTIWGC (SEQ ID NO: 35) fusion protein was used for the inhibition of VEGF-C binding to VEGFR-3 expressed on BaF3 cells. In this experiment, a 20 uM concentration of the fusion protein sufficed to inhibit the binding completely as measured by the MTT cell death assay.

Row | Substance | competition with VEGF-C binding to VEGFR-3 expressed on BaF3 cells (in words) (BaF3 cells expressing VEGFR-3) | concentration that sufficed to inhibit VEGF-C binding to VEGFR-3 completely, as measured by the MTT cell death assay (GST fusion protein, BaF3-R3/EpoR cells, no IL-3, VEGF-C supplied, 48 h) | concentration sufficient to completely inhibit VEGF-C/D binding to VEGFR-3 expressed on BaF3 cells (GST fusion protein, BaF3 cells)
1 | CGYWLTIWGC (isolated peptide) | competes with VEGF-C binding to VEGFR-3 |  | 
2 | GST-CGYWLTIWGC: fusion protein of glutathione-S-transferase (GST) with peptide CGYWLTIWGC, produced in E. coli from pGEX-2T ({GST}-CGYWLTIWGC; cysteine pairing not given here; also: GST fusion, dimerising) |  | 20 µM | 20 µM
